From the supplement of paper PMC10724198
± gives the standard deviation of the averaged measurements.

These sequences were tested on Saccharomyces cerevisiae (assay: protein stability index of tFT-peptide fusion (C-terminal peptide) (PSI (0-1 scale)); higher = more stable (slower turnover)). Conditions: genetic background: wild type; temperature: 30 C.
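Further: PSI is a weighted mean of sequencing reads over stability bins, variants kept only with over 10 reads, mCherry proximal and sfGFP distal, peptide attached via GGGS linker.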

Sequence	protein stability index
IAEVGRFHLVVS	0.542 ± 0.04
IALWLYALSLAF	0.532 ± 0.016
ICCGLCRDCSCL	0.732 ± 0.069
ICEYGLKRKIHF	0.68199 ± 0.0006
ICRFSNRYSCPL	0.689 ± 0.016
ICSVGGFWLSCV	0.596 ± 0.032
ICVTSFSVWGCC	0.592 ± 0.028
IDLVLCIGLGYQ	0.62 ± 0.063
IDPTLPARAAPP	0.737 ± 0.029
IDPVVFCEYTHA	0.688 ± 0.011
IDVIIESVFSLF	0.619 ± 0.09
IEFPQGRKTTQS	0.629 ± 0.0082
IENNIITRGTRV	0.735 ± 0.027
IERFKKMRGVGS	0.801 ± 0.084
IERKNYPQNRRQ	0.62 ± 0.046
IFGMSGYVSIIL	0.671 ± 0.014
IFNYGGANFIYC	0.714 ± 0.028
IFPPPLLPSLPT	0.703 ± 0.086
IFRTRISSSLWC	0.685 ± 0.0083
IFVTLGWARMRY	0.647 ± 0.065
IFWGFSFRGWGG	0.684 ± 0.0086
IGFCVRGYGTTG	0.727 ± 0.1
IGFPFRIYRFAF	0.563 ± 0.04

Sequence	protein stability index
IGGGWIGRYVSR	0.684 ± 0.033
IGGWWCGALLGD	0.79 ± 0.074
IGHVVTWCFGRV	0.6898 ± 0.0041
IGLKKVVKIRKD	0.614 ± 0.039
IGTRHIKILGRY	0.698 ± 0.047
IGVRSTRFCAIR	0.655 ± 0.0093
IGVVKHGAAEKV	0.711 ± 0.069
IGWCPASFMVIG	0.585 ± 0.049
IHLSVYPLQPSC	0.76 ± 0.04
IHQVGCFHIPFG	0.666 ± 0.0097
IIQNNNQLKKRR	0.671 ± 0.049
IIRKTKSKQEMI	0.706 ± 0.039
IIVPCGRWEGGG	0.69 ± 0.017
IIVWGGAGLWGV	0.59 ± 0.0027
IKGKNTGKERER	0.6176 ± 0.00089
IKKRDKAKKEYI	0.672 ± 0.0077
IKKSMKSLTRTE	0.735 ± 0.015
IKKYNEKRITKV	0.66 ± 0.045
IKLKVKIQKENG	0.654 ± 0.021
IKNEEKKLIESQ	0.76 ± 0.073
IKNEKKKKKNKK	0.7 ± 0.035
IKNSCAGCTRDV	0.671 ± 0.035
IKSKFILKTRPM	0.691 ± 0.091

Sequence	protein stability index
ILCTVVKTDSKE	0.702 ± 0.081
ILGGRIRLVGRK	0.708 ± 0.033
ILLFLLPFSHRL	0.658 ± 0.076
ILLSHRLQVSSC	0.564 ± 0.035
ILPCSRYNILNV	0.659 ± 0.0078
ILSASSLFPFVS	0.693 ± 0.053
ILTCGARSSICD	0.639 ± 0.011
ILYNIEKQQSSV	0.683 ± 0.032
IMTNGADRERYR	0.736 ± 0.034
INARCNRTIVRP	0.646 ± 0.021
INEEIVDMKRLL	0.697 ± 0.0095
INKKKKEKKKVE	0.731 ± 0.023
INKWNKRDGLFQ	0.66 ± 0.03
INPLAHCSISRS	0.7086 ± 0.0066
IPHHFSPPLPSP	0.772 ± 0.082
IPPLPSSIPRSF	0.673 ± 0.022
IPPLTKRPAPGG	0.684 ± 0.099
IPQTITLPHSNP	0.694 ± 0.088
IPSKHKPSRIPI	0.665 ± 0.014
IQARAVRRSAII	0.627 ± 0.0012
IQFKDKAVSETE	0.658 ± 0.021
IREFNLGTQIRY	0.711 ± 0.035
IRGCSGSDKNKS	0.643 ± 0.047

Sequence	protein stability index
IRKEKREKKSSH	0.702 ± 0.069
IRKLDIIFLSES	0.827 ± 0.063
IRRPSVTAIRPS	0.667 ± 0.08
IRRRKRKRNQKP	0.708 ± 0.032
IRSLPYVGVFIE	0.587 ± 0.036
ISEINQKGKNRE	0.675 ± 0.037
ISFFLLYFPPSY	0.59 ± 0.024
ISKEIKKRLNRY	0.63 ± 0.055
ISLLIFSPTLFS	0.687 ± 0.035
ISLRAPVRPECV	0.709 ± 0.031
ISLVMLLKDAWR	0.695 ± 0.019
ISMPECDIVEEI	0.707 ± 0.022
ISPPAPTNLPTT	0.696 ± 0.043
ISSKREITGSVA	0.694 ± 0.012
ITALYVILTRRP	0.6007 ± 0.0033
ITGLRNSRFNRP	0.652 ± 0.0068
ITHLFRSSIYSR	0.683 ± 0.12
ITNEQEMKRYDV	0.667 ± 0.013
ITRKKLEISVDK	0.685 ± 0.04
ITTKLRVTRLLR	0.766 ± 0.13
IVEERLFWKMWE	0.659 ± 0.015
IVFVLRPRRSRC	0.65 ± 0.04
IVNKRLKIRKKQ	0.658 ± 0.045

Sequence	protein stability index
IVRENGKDVGVG	0.506 ± 0.014
IVRMLTCGVGWD	0.581 ± 0.016
IVSKESNVYIIK	0.662 ± 0.053
IVVLMEADLAGC	0.583 ± 0.02
IWLAFCTLRPVS	0.591 ± 0.027
IWLSCCPLAFWS	0.6896 ± 0.0065
IWRLLLPLPNPF	0.688 ± 0.019
IYRTYEAKPGHP	0.69 ± 0.12
IYRWSGTVGGER	0.6971 ± 0.003
IYVGAGCLGHTE	0.717 ± 0.068
KAGHEPRLTRKQ	0.667 ± 0.022
KAGVGAFLEPRS	0.713 ± 0.064
KAGVWLWVGGGG	0.739 ± 0.015
KCDLTREDVVHR	0.657 ± 0.01
KDDEQESESKNN	0.667 ± 0.011
KDEWVQSHTNQV	0.671 ± 0.0083
KDKEQKKIKKSI	0.681 ± 0.13
KDKNPDARDDGG	0.705 ± 0.04
KDRKKYIMTKPS	0.627 ± 0.051
KDSSRHSPDPSR	0.715 ± 0.086
KEDKLLRSSEGF	0.6886 ± 0.0029
KEEGLKRAKGPQ	0.642 ± 0.02
KEELKKRRQEAK	0.677 ± 0.012

Sequence	protein stability index
KEFFGGSTDFRV	0.729 ± 0.18
KEGKGRGDGGRE	0.697 ± 0.018
KEKGSRYKRALS	0.679 ± 0.014
KETQKKKQDKKK	0.703 ± 0.0091
KFARHVLIQSHV	0.559 ± 0.04
KFKREKKKINKR	0.6938 ± 0.0023
KFLISIWGGTRG	0.6118 ± 0.0025
KGANISDCLSIF	0.616 ± 0.018
KGDAQASSDLTL	0.691 ± 0.014
KGDWGGRGCGRH	0.693 ± 0.021
KGEKKNEEEERG	0.68 ± 0.01
KGETRLTSARLI	0.706 ± 0.028
KGETSYTGIAVG	0.667 ± 0.085
KGGGMWRCCVWR	0.685 ± 0.0089
KGGREARRERRD	0.672 ± 0.036
KGKTARDVLLLV	0.58 ± 0.013
KGQIVIDTKGGG	0.609 ± 0.053
KGSWTLGDGLVW	0.644 ± 0.013
KHPLAPLRRPVI	0.68 ± 0.0078
KHYKVDAVNIRG	0.686 ± 0.035
KIDKKNKKKKRN	0.728 ± 0.023
KIDKKSKKKKEI	0.684 ± 0.017
KIDKNILTNKEN	0.673 ± 0.056

Sequence	protein stability index
KIGYTISGFVIS	0.707 ± 0.054
KIIASVLYGVIG	0.61 ± 0.037
KIINKKKKRKKN	0.665 ± 0.023
KIKDKKNKQKKH	0.709 ± 0.034
KIKKLKKRNKSY	0.612 ± 0.023
KIKNKYKEKKKK	0.67 ± 0.0079
KIKQKEITEKNR	0.638 ± 0.038
KIRFGRCLRSSF	0.746 ± 0.033
KIRNLELNVQTN	0.688 ± 0.075
KITKKNRSWKTS	0.623 ± 0.019
KIYKKSKKKKEI	0.688 ± 0.061
KKDFTTKSKEYR	0.7125 ± 0.0026
KKDRRGGGPGGG	0.691 ± 0.03
KKEEIIIGGKKI	0.663 ± 0.043
KKEERTQKNEKK	0.654 ± 0.011
KKEKKKQKRNNN	0.782 ± 0.013
KKEKNQEKRKKE	0.657 ± 0.021
KKEKSQTKKQNI	0.684 ± 0.12
KKEKVKKKKGNN	0.723 ± 0.013
KKEKYIQIRTID	0.627 ± 0.033
KKEQKFKEDSDR	0.677 ± 0.019
KKEQKSKTEMRK	0.7124 ± 0.0037
